Among the data in paper PMC4484057 are FRET efficiency and fold increase of binding in the presence of m2 values, retold here.

The target of one test is Gαi1-intYFP (UniProt P63096). Description: FRET or BRET; living HeLa cells cotransfected with Gαi1-intYFP, CFP-Gβ1 and Gγ2, 0.2% FBS overnight, before stimulation (t0); confocal, FRET efficiency at the plasma membrane; also Daple-depleted cells with or without Wnt5a, and Wnt3 stimulation, where FRET continued. (In general: In BRET a luciferase serves as donor, and the signal depends on an acceptor being close.)
Gαi1-intYFP, sequence (P63096 whole entry): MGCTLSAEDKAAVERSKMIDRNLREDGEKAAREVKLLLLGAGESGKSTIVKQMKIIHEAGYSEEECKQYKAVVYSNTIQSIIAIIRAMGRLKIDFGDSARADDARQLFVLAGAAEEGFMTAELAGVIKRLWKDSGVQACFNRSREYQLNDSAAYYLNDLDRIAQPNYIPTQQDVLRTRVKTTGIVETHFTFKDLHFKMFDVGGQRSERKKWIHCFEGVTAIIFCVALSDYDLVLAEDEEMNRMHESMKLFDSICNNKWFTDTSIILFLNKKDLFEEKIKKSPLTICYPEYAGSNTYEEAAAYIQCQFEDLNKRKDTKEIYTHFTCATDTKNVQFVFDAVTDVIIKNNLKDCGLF

Another test deals with GST-FZD7-CT (UniProt O75084). Description: pull-down; as a19, His-Gαi3 (GDP) with GST-FZD7-CT in the presence of His-Daple-CT WT.

His-Gαi3, sequence (P08753 whole entry): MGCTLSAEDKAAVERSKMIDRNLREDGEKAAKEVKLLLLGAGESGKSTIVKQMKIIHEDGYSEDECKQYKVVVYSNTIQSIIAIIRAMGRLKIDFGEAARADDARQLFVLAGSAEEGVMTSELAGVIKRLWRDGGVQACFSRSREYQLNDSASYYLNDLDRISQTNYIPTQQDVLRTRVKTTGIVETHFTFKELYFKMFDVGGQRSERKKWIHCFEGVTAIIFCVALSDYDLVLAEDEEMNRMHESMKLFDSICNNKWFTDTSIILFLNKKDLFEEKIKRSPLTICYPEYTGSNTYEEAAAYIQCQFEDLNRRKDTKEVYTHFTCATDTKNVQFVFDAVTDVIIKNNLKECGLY

As for “CFP-Gβ1 with Gγ2 (from UniProt P62873 1-340; P59768 1-71) (complex)”, the FRET efficiency with Gαi1-intYFP is 0.36. In the case of “His-Gαi3 (from UniProt P08753 1-354) (natural protein)”, the fold increase of binding in the presence of m2 with GST-FZD7-CT turned out to be 5 fold.
